{
  "source": "patent US20240374603A1",
  "about": "“PHARMACEUTICAL PREPARATION, PREPARATION METHOD THEREFOR AND USE THEREOF” (COHERENT BIOPHARMA (SUZHOU) LIMITED, priority 2021, published 2024)",
  "key": {"[1]": {"experiment": "pH confirmation in freeze-dried form, stability at 30° C. for 1 month", "assay_type": "physicochemical", "conditions": "pH range of 6.9 to 7.7, 30° C. for 1 month", "description": "An aqueous solution containing LDC10B (5 mg/mL), mannitol (40 mg/mL), sucrose (10 mg/mL) and tromethamine (0.765 mg/mL) was prepared, and the pH was adjusted to 6.9, 7.3 and 7.7 with dilute hydrochloric acid, respectively; the resulting solutions were filtered and sub-packaged into vials, half of a stopper was pressed into the vial, freeze-drying was performed, and the vials were capped. The stability of each sample was investigated at 30° C. for 1 month."}, "[2]": {"experiment": "Final prescription and process confirmation, stability at 25° C. and 40° C.", "assay_type": "physicochemical", "conditions": "final prescription (Example 7); for % Moisture / % Total impurity / Re-dissolution time s: freeze-dried; for pH value: re-dissolution pH", "description": "In view of the results of the prescription screening experiment, the prescription process confirmation experiment was carried out to investigate the stability of the final prescription."}},
  "note": "*1 amine or outer side, *2 acyl side, *3 side chain or, on linkers, in order; H or OH if unused. Where a SMILES comes first, the peptide text is derived from it. Bridges are numbered along the chain shown (N, C = ends). Roman numbers before positions name the chains, in order. [ ]: non-standard residue; d: D form. The star is where a group is joined. ξ: configuration not given here. Hexanoyl(6-succinimido-3yl) = O=C1CC([*:1])C(=O)N1CCCCCC(=O)[*:2]; Pteroyl = Nc1nc2ncc(CNc3ccc(C(=O)*)cc3)nc2c(=O)[nH]1; Dolaproine(all-ξ) = COC(C(C)C(=O)[*:2])C1CCCN1[*:1]; X1 = CCC(C)C(C(CC(=O)[*:2])OC)N(C)[*:1]; γGlu = O=C(O)[CH](CCC(=O)[*:2])N[*:1]; PABC = O=C(OCc1ccc(N[*:1])cc1)[*:2]; Cit = NC(=O)NCCC[CH](N)C(=O)O; NMeV = CN[CH](C(=O)O)C(C)C; X2 = CC(N*)C(O)c1ccccc1",
  "data": [
    {"compound": "CCC(C)C(C(CC(=O)N1CCCC1C(OC)C(C)C(=O)NC(C)C(O)c1ccccc1)OC)N(C)C(=O)C(NC(=O)C(C(C)C)N(C)C(=O)OCc1ccc(NC(=O)C(CCCNC(N)=O)NC(=O)C(NC(=O)CCCCCN2C(=O)CC(SCC(NC(=O)CCC(NC(=O)c3ccc(NCc4cnc5[nH]c(N)nc(=O)c5n4)cc3)C(=O)O)C(=O)NC(CCCCN)C(=O)NC(CCC(=O)O)C(=O)NC(Cc3ccccc3)C(=O)NC(CC(C)C)C(=O)NC(Cc3cnc[nH]3)C(=O)N3CCCC3C(=O)NC(CO)C(=O)NC(CCCCN)C(=O)NC(C(=O)NC(CC(=O)O)C(=O)NC(CC(C)C)C(=O)N3CCCC3C(=O)NC(CCCNC(=N)N)C(=O)O)C(C)C)C2=O)C(C)C)cc1)C(C)C", "note": "(stereo not shown) [LDC10B] (I: {Pteroyl-γGlu}-CKEFLHPSKVDLPR-OH / II: V[Cit][PABC][NMeV]V[X1][Dolaproine(all-ξ)]-X2; linker I:1-II:N via Hexanoyl(6-succinimido-3yl); configuration not given here)", "values": [
      {"measurement": "quality of the freeze-dried preparation", "setting": "[1]", "value": "stable"},
      {"measurement": "% Moisture", "setting": "[2]; 25° C., 0 day", "value": 0.42, "unit": "%"},
      {"measurement": "% Total impurity", "setting": "[2]; 25° C., 0 day", "value": 0.44, "unit": "%"},
      {"measurement": "Re-dissolution time s", "setting": "[2]; 25° C., 0 day", "value": 160, "unit": "s"},
      {"measurement": "% Moisture", "setting": "[2]; 25° C., 1 month", "value": 1.79, "unit": "%"},
      {"measurement": "% Total impurity", "setting": "[2]; 25° C., 1 month", "value": 0.51, "unit": "%"},
      {"measurement": "Re-dissolution time s", "setting": "[2]; 25° C., 1 month", "value": 154, "unit": "s"},
      {"measurement": "% Moisture", "setting": "[2]; 25° C., 2 months", "value": 1.97, "unit": "%"},
      {"measurement": "% Total impurity", "setting": "[2]; 25° C., 2 months", "value": 0.61, "unit": "%"},
      {"measurement": "Re-dissolution time s", "setting": "[2]; 25° C., 2 months", "value": 114, "unit": "s"},
      {"measurement": "% Moisture", "setting": "[2]; 25° C., 3 months", "value": 2.19, "unit": "%"},
      {"measurement": "% Total impurity", "setting": "[2]; 25° C., 3 months", "value": 0.81, "unit": "%"},
      {"measurement": "Re-dissolution time s", "setting": "[2]; 25° C., 3 months", "value": 174, "unit": "s"},
      {"measurement": "% Moisture", "setting": "[2]; 25° C., 6 months", "value": 2.62, "unit": "%"},
      {"measurement": "% Total impurity", "setting": "[2]; 25° C., 6 months", "value": 1.21, "unit": "%"},
      {"measurement": "Re-dissolution time s", "setting": "[2]; 25° C., 6 months", "value": 128, "unit": "s"},
      {"measurement": "% Moisture", "setting": "[2]; 40° C., 0 day", "value": 1.2, "unit": "%"},
      {"measurement": "% Total impurity", "setting": "[2]; 40° C., 0 day", "value": 0.33, "unit": "%"},
      {"measurement": "Re-dissolution time s", "setting": "[2]; 40° C., 0 day", "value": 148, "unit": "s"},
      {"measurement": "% Moisture", "setting": "[2]; 40° C., 5 day", "value": 1.0, "unit": "%"},
      {"measurement": "% Total impurity", "setting": "[2]; 40° C., 5 day", "value": 0.48, "unit": "%"},
      {"measurement": "Re-dissolution time s", "setting": "[2]; 40° C., 5 day", "value": 139, "unit": "s"},
      {"measurement": "% Moisture", "setting": "[2]; 40° C., 10 day", "value": 1.2, "unit": "%"},
      {"measurement": "% Total impurity", "setting": "[2]; 40° C., 10 day", "value": 0.54, "unit": "%"},
      {"measurement": "Re-dissolution time s", "setting": "[2]; 40° C., 10 day", "value": 118, "unit": "s"},
      {"measurement": "% Moisture", "setting": "[2]; 40° C., 30 day", "value": 1.8, "unit": "%"},
      {"measurement": "% Total impurity", "setting": "[2]; 40° C., 30 day", "value": 0.69, "unit": "%"},
      {"measurement": "Re-dissolution time s", "setting": "[2]; 40° C., 30 day", "value": 135, "unit": "s"},
      {"measurement": "pH value", "setting": "[2]; 25° C., 0 day", "value": 7.4},
      {"measurement": "pH value", "setting": "[2]; 25° C., 1 month", "value": 7.5},
      {"measurement": "pH value", "setting": "[2]; 25° C., 2 months", "value": 7.2},
      {"measurement": "pH value", "setting": "[2]; 25° C., 3 months", "value": 7.4},
      {"measurement": "pH value", "setting": "[2]; 25° C., 6 months", "value": 7.3},
      {"measurement": "pH value", "setting": "[2]; 40° C., 0 day", "value": 7.4},
      {"measurement": "pH value", "setting": "[2]; 40° C., 5 day", "value": 7.1},
      {"measurement": "pH value", "setting": "[2]; 40° C., 10 day", "value": 7.3},
      {"measurement": "pH value", "setting": "[2]; 40° C., 30 day", "value": 7.4}
    ]}
  ]
}
